The text below walks through data of patent publication US20200407704, “FUSION PROTEINS AND METHODS FOR SITE-DIRECTED GENOME EDITING” (The Regents of the University of California, published 2020).

Series [1] concerns HBD-ADAR2 deaminase fusion (RNase H1 hybrid binding domain) (Homo sapiens). The note with it: DNA strand of hybrid, 250 nM, 60 min.
In series [2] the test system is hADAR2d (ADAR2 deaminase domain, hADAR2-D WT) (Homo sapiens). The note with it: DNA strand of hybrid, 250 nM, 60 min.
In another series the target is T1, hADAR1d E1008Q (Homo sapiens, UniProt P55265 SEQ:833-1226).
T1 chain: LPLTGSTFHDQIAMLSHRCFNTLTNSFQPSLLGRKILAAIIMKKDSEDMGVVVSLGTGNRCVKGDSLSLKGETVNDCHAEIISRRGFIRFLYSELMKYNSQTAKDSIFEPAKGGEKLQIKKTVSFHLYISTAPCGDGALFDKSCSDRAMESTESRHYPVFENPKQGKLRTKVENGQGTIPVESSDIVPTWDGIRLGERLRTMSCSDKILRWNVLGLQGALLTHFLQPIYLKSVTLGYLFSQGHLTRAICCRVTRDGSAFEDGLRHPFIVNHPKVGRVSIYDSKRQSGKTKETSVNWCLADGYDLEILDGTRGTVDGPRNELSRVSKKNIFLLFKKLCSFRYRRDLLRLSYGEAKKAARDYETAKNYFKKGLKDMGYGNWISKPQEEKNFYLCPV
The experiment in a line: 500 nM, 2 h. The note with it: dA-C mismatch. The method, then:
M13 genomic ssDNA (New England Biolabs) was hybridized with the corresponding guide RNAs. The guide RNA to genomic DNA molar ratio was 20:1 for each hybridization. Deamination reactions were carried out as previously described (21) with the following modifications. The final reaction volume was 10 μL. hADAR1d E1008Q was used for the reaction and the final enzyme concentration was 500 nM. The final RNA concentration was 2.8 nM. The final reaction solution contained 13 mM Tris-HCl, pH 7.2, 3.6% glycerol, 1.2 mM EDTA, 0.002% NP-40, 40.5 mM potassium glutamate, 12.5 mM KCl, 6 mM NaCl, 0.6 mM DTT, 160 units/mL RNasin, and 1 μg/mL yeast tRNA. Reactions were quenched by adding 190 μL 95° C. nuclease-free water followed by incubation at 95° C. for 5 minutes. The target regions of the reaction products were PCR amplified with primers using GoTaq® DNA Polymerase (Promega). PCR products were purified by agarose gel, extracted using a QIAquick Gel Extraction Kit (Qiagen), and sequenced with the forward PCR primers. The sequencing peak heights were measured with Chromas for calculating the editing level. Each experiment was carried out in triplicate. The editing level for the corresponding zero time point was subtracted from each data point as background subtraction. Statistical significance between groups was determined by t tests using QuickCalcs (GraphPad Software).

For the molecule “DNA/RNA hybrid duplex used with HBD fusion”, the activity was 90 % edited in series [1] and 35 % edited in series [2].

B1: M13 AAG site + guide RNA (DNA:RNA)
DNA: CCAAATGGCTCAAGTCGGTGACGG
RNA: CCGUCACCGACCUGAGCCAUUUGG
With B1, the activity with hADAR1d E1008Q was found to be 81 % edited.

B2: M13 GAA site + guide RNA (DNA:RNA)
DNA: AGGCCAGACGCGAATTATTTTTGA
RNA: UCAAAAAUAAUCCGCGUCUGGCCU
For the molecule B2, the activity with hADAR1d E1008Q turned out to be 27 % edited.

B3: M13 CAC site + guide RNA (DNA:RNA)
DNA: CTTTCTATTCTCACTCCGCTGAAA
RNA: UUUCAGCGGAGCGAGAAUAGAAAG
In the series with hADAR1d E1008Q, B3 registered an activity of 53 % edited.

B4: M13 TAG site + guide RNA (DNA:RNA)
DNA: CCTCGCGTTCTTAGAATACCGGAT
RNA: AUCCGGUAUUCCAAGAACGCGAGG
For B4, the activity with hADAR1d E1008Q was determined as 94 % edited.
